Laboratory results taken from patent publication US20230121197A1, “ANTIBODIES SPECIFICALLY BINDING THE CARBOXYMETHYLATED CATALYTIC SUBUNIT OF PROTEIN PHOSPHATASE 2A” (Medizinische Universität Wien, priority 2020, published 2023).

Key:
[1] = mouse, in vivo, 5 mg/kg
[2] = system: c-MYC; experiment: H358 xenograft tumors, single dose DT-061 time-course: c-MYC IHC; assay type: in vivo, Balb/c nu/nu mice; conditions: single dose DT-061
[3] = system: α-carboxymethylation of PP2Ac; experiment: H358 xenograft tumors, single dose DT-061 time-course: methyl-PP2Ac by IHC and western blot with 7C10-C5; assay type: in vivo, Balb/c nu/nu mice
Procedure: Next, the immunohistochemical analysis of xenograft tumors was performed. In brief, five micron sections from formalin-fixed paraffin-embedded (FFPE) specimens were deparaffinized in Histo-Clear and ethanol, exposed to 0.3% hydrogen peroxide to block endogenous peroxidase activity, and incubated for antigen retrieval with a citrate-based antigen unmasking solution (H-3300, Vector Laboratories) in a pressure cooker. Tumor sections were blocked with Mouse Ig Blocking Reagent (BMK-2202, Vector Laboratories), and incubated with anti-carboxymethyl PP2Ac specific antibody (7C10-C5) or an antibody recognizing total PP2Ac (ab106262) at 4° C. for two nights. Washes were performed in PBS. Slides were subsequently developed using secondary anti-mouse immunoglobulins/HRP (K1497, Agilent), DAB peroxidase substrate as the chromagen, and hematoxylin for counterstaining nuclei. Slides were sealed, and randomized for subsequent blinded review. Two independent researchers scored the level of carboxymethylated PP2Ac staining (with 7C10-C5) in one section per tumor (min. 6 tumors per treatment/control group). […] Scores from 0-2 are considered low staining, 2-4 as moderate, and 4-6 as high intensity staining. Based on these scores the data was plotted as the percentage of slides from each time point that fell into each group (FIG. 14I).

[4] = system: LNCaP LCMT1 knockdown lines; experiment: Colony formation and cell viability (cell titer glo) in LCMT1 knockdown prostate cancer cells; assay type: cell-based, human; conditions: colony formation (20 uM, 10-12 days) and cell viability (96 hours)
[5] = target: PP2Ac C-terminal peptide pT304-meL309, ac-HVTRRpTPDYFL-CH3 (human); experiment: ELISA, peptide coated at 2 µg/ml, antibody 1 µg/ml, normalized, N=4
[6] = target: PP2Ac C-terminal peptide meL309, ac-…-CH3 (α-carboxymethylated) (human); experiment: as above
[7] = target: PP2Ac C-terminal peptide pY307-meL309, ac-HVTRRTPDpYFL-CH3 (human); experiment: ELISA, peptide coated at 2 µg/ml, antibody 1 µg/ml, normalized, N=3
[8] = target: PP2Ac C-terminal peptide meL309, ac-…-CH3 (α-carboxymethylated) (human); experiment: as above
[9] = target: PP2Ac C-terminal peptide pY307-meL309, ac-HVTRRTPDpYFL-CH3 (human); experiment: ELISA, 4-fold dilution series of coated peptide, normalized, N=3
[10] = target: PP2Ac C-terminal peptide L309, ac-…-OH (unmodified) (human); experiment: ELISA, peptide coated at 2 µg/ml, antibody 1 µg/ml

O=S(=O)(N[C@@H]1CCC[C@H](N2c3ccccc3Oc3ccccc32)[C@H]1O)c1ccc(OC(F)(F)F)cc1 [DT-061]
half-life obtained from serum [1]: 6.3 h | return of c-MYC to basal levels [2]: ≤ 6 h | c-MYC in xenograft tumors after treatment ([2]; IHC): significant decrease of c-MYC at early time points (one, two, and three hours) | return of α-carboxymethylated PP2Ac to basal levels post treatment ([3]; single dose DT-061): ≤ 12 h | α-carboxymethylated PP2Ac in xenograft tumors after treatment ([3]; single dose DT-061 (5 mg/kg), IHC with 7C10-C5): increase in α-carboxymethylated PP2Ac at early time points (one, two, and three hours)

CNC(=O)c1ccc(N2C(=S)N(c3ccc(C#N)c(C(F)(F)F)c3)C(=O)C2(C)C)cc1F [enzalutamide]
effect of LCMT1 knockdown on response to enzalutamide [4]: decreased sensitivity

rabbit monoclonal antibody E155 (Abcam #ab32104 lot GR17965-24)
fold-change of ELISA signal, L309 over pT304-meL309 [5]: 50 fold | fold-change of ELISA signal, meL309 over pT304-meL309 [5]: 10.7 fold | fold-change of ELISA signal, pT304-L309 over pT304-meL309 [5]: 36.1 fold | fold-change of ELISA signal, L309 over meL309 [6]: 4.65 fold | fold-change of ELISA signal, pY307-L309 over pY307-meL309 [7]: 2.5 fold | fold-change of ELISA signal, pY307-meL309 over meL309 [7]: 3.36 fold | fold-change of ELISA signal, L309 over meL309 [8]: 8.2 fold | EC50 (read off the curve) [9]: 0.3 µg/mL | fold higher ELISA signal intensity than with the α-carboxymethylated counterpart (meL309) [10]: 4.7 to 8.2 fold
